Data on 2 molecules can be found in US20210009697A1 (Five Prime, published 2021).

The target of one assay is T1, ICOS (UniProt Q9Y6W8 21-141, limits assumed).
T1 construct: also called inducible co-stimulator
T1 sequence (looked up): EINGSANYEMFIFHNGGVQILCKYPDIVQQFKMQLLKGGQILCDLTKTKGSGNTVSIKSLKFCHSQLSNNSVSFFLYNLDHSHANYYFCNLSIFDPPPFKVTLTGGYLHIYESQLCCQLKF
Kind of assay: in vitro, method not described.

In the next assay the target is T2, CTLA-4 (human, UniProt P16410 37-162, limits assumed).
T2 construct: also called cytotoxic T lymphocyte antigen-4
T2 sequence (looked up): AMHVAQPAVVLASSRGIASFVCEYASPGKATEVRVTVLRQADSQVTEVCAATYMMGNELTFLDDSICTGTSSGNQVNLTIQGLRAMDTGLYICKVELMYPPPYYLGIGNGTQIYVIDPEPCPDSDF
Put plainly: in vitro, method not described.

The next assay deals with T3, BTLA (UniProt Q7Z6A9 31-151, limits assumed).
T3 construct: also called B- and T-lymphocyte attenuator
T3 sequence (looked up): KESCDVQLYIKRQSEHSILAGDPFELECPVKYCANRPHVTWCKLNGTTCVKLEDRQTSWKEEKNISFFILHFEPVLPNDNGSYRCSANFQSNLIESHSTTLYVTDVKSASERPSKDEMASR
Kind of assay: in vitro, method not described.

Assay [1] addresses T4, human colony stimulating factor 1 receptor (CSF1R) (human, UniProt P07333 20-506, limits assumed).
T4 construct: In the monocyte assays the receptor is the endogenous one on primary human monocytes; also called hCSF1R
Kind of assay: not described.

The target in another assay is T5, mouse CSF1R (mouse, UniProt P09581 20-511, limits assumed).
T5 construct: In the mNFS60 proliferation assay the receptor is that of the cell line
T5 sequence (looked up): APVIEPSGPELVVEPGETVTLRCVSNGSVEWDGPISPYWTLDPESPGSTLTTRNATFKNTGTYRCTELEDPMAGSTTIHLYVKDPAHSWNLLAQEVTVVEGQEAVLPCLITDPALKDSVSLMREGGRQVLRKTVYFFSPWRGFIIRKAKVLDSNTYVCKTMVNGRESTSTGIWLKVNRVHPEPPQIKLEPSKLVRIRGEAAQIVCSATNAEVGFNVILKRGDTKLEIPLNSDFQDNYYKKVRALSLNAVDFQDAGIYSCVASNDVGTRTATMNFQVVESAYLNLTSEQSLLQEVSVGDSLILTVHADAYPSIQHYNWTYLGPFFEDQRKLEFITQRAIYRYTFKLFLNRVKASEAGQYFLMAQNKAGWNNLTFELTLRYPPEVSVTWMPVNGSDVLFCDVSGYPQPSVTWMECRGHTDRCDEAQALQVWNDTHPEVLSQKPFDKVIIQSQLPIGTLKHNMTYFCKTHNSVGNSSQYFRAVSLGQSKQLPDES
Kind of assay: not described.

T4 sequence (P07333 20-506 limits assumed): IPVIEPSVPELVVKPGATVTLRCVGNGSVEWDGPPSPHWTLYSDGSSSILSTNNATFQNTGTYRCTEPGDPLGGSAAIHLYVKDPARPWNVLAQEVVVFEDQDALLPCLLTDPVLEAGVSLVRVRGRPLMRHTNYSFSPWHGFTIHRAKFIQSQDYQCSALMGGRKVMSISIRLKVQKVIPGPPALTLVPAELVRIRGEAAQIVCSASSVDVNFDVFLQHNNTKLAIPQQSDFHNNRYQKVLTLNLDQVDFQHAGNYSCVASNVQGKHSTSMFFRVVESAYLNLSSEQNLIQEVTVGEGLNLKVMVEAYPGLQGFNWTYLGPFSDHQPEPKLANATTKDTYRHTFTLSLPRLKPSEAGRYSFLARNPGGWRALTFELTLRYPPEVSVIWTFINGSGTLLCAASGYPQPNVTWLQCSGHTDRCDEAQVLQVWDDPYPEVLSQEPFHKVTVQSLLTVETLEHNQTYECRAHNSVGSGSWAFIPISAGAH

B1: Nivolumab (antibody, human IgG4 S228P, kappa, V domains shown)
VH: QVQLVESGGGVVQPGRSLRLDCKASGITFSNSGMHWVRQAPGKGLEWVAVIWYDGSKRYYADSVKGRFTISRDNSKNTLFLQMNSLRAEDTAVYYCATNDDYWGQGTLVTVSS
VL: EIVLTQSPATLSLSPGERATLSCRASQSVSSYLAWYQQKPGQAPRLLIYDASNRATGIPARFSGSGSGTDFTLTISSLEPEDFAVYYCQQSSNWPRTFGQGTKVEIKR
notes: also called Opdivo; 5C4
As to B1, the binding result with ICOS, in the assay with CTLA-4 and with BTLA was “no binding” throughout.

B2: Cabiralizumab (antibody, human IgG4 S228P, kappa, V domains shown)
VH: QVQLVQSGAEVKKPGSSVKVSCKASGYTFTDNYMIWVRQAPGQGLEWMGDINPYNGGTTFNQKFKGRVTITADKSTSTAYMELSSLRSEDTAVYYCARESPYFSNLYVMDYWGQGTLVTVSS
VL: EIVLTQSPATLSLSPGERATLSCKASQSVDYDGDNYMNWYQQKPGQAPRLLIYAASNLESGIPARFSGSGSGTDFTLTISSLEPEDFAVYYCHLSNEDLSTFGGGTKVEIKR
notes: also called FPA008; HuAb1
As to B2, the binding result in assay [1] is listed as “binds”; with mouse CSF1R, “no binding”.
